According to patent US20250382354A1:

Key:
[1] = biological target: C-terminally truncated SARS-CoV-2 S protein (pSARS-CoV2-Strunc), ancestral (SARS-CoV-2) (UniProt P0DTC2); assay: cell-based or functional assay
MERS S ectodomain (MERS) = assay: ELISA on coated S
HKU5 HR2 peptide (HKU5) = HKU5 HR2 peptide (HKU5) (UniProt A3EXD0); assay: peptide ELISA
HKU4 HR2 peptide (HKU4) = HKU4 HR2 peptide (HKU4) (UniProt A3EX94); assay: peptide ELISA
[2] = biological target: CRCoV-240/05 HR2 peptide (CRCoV-240/05); assay: peptide ELISA
MHV HR2 peptide (MHV) = assay: peptide ELISA
[3] = biological target: HKU24 HR2 peptide (HKU24); assay: peptide ELISA
[4] = biological target: SARS-CoV-2 HR2 peptide (SARS-CoV-2) (UniProt P0DTC2); assay: peptide ELISA

Substance: S2P6 (antibody)
- Ancestral Pseudovirus IC50 (on cells with [not given]) [1]: 23.2 µg/mL
- EC50 (MERS S ectodomain (MERS)): 0.066 µg/mL
- EC50 (HKU5 HR2 peptide (HKU5)): 0.0345 µg/mL
- EC50 (HKU4 HR2 peptide (HKU4)): 0.00975 µg/mL
- EC50 [2]: 0.0189 µg/mL
- EC50 (MHV HR2 peptide (MHV)): 0.0215 µg/mL
- EC50 [3]: 0.0101 µg/mL
- EC50 [4]: 0.0166 µg/mL
